The source of these data is patent US20120276537.

The subject of the series is ZFNRosa (Rosa26-specific zinc finger nuclease pair) (synthetic construct). The series can be described thus: cell_activity. The note with it: mouse zygote mRNA microinjection; 13 of 58 pups lost XbaI site; ZFN pair, half-sites of the monomers not stated; homologous recombination also seen (pup 22 …).

As to “TGCAACTCCAGTCTTTCTAGAAGATGGGCGGGAGTC (double strand) [Rosa26 intron 1 ZFN target site]”, the activity (% of pups with NHEJ XbaI loss) stood at 22.
